{"source": "patent US20200206371A1", "about": "(WAYNE STATE UNIVERSITY, published 2020)", "molecules": {"B1": {"name": "AN-18 (anti-IFNγ, rat IgG1, kappa, eBioscience), full-length (antibody, V domains shown)", "VH": "QVQLKESGPGLVQPSQTLSLTCTVSGFSLDSYNVHWVRQPPGKGLEWMGRMKYNGDTSYNSALKSRLRISRDTSKNQVFLKMNSLQTDDTGTYYCTRDWHYGYPSPYFEFWGQGVMVTVSS", "VL": "DVQMTQSPSYLAASPGESVSISCKASKNINTYLAWYQEKPGKTNKLLIYSGSTLQSGTPSRFSGSGSGTDFTLTIRSLEPEDFAVYYCQQHNEYPLTFGSGTKLEVKR", "notes": "Bought rat IgG1, kappa monoclonal antibody; also called full-length AN18; anti-mouse IFN-γ mAb clone AN-18"}}, "key": {"[1]": {"molecular_target": "T1, murine IFN-γ (recombinant IFN-γ) (mouse, UniProt P01580 23-155)", "T1 construct": "AN-18 is described as a rat mAb to murine IFN-γ; also called rIFN-γ; interferon gamma", "T1 sequence (looked up)": "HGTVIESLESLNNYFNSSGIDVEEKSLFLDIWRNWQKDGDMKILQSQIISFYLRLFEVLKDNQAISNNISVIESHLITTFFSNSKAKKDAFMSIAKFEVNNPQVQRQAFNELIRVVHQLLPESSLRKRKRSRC", "assay": "Octet (BLI); format not stated; diabody (scFv homodimer), not full-length antibody"}, "[2]": {"molecular_target": "T1, murine IFN-γ (recombinant IFN-γ)", "assay": "Octet (BLI); format not stated; full-length AN18, not diabody"}}, "data": [{"molecule": "anti-IFN-γ diabody (homodimer of the single chain Fv derived from anti-IFNγ clone AN18, made in CHO cells)", "values": [{"measurement": "Kd", "setting": "[1]", "result": 37.9, "unit": "nM"}]}, {"molecule": "B1", "values": [{"measurement": "Kd", "setting": "[2]", "result": 28.2, "unit": "nM"}]}]}
